Data published in PMC5818487.

Tests used:
Assay in all cases: SPR; Biacore T200; ICAM-1-Fc proteins captured on Protein A on a CM5 chip (1108 ± 108 RU); DBLβ domains flowed as twofold dilution series 1000-7.81 nM at 30 µl/min, 240 s association, 600 s dissociation; 10 mM HEPES pH 7.2, 250 mM NaCl, 0.05% Tween-20; global 1:1 model; 1 mg/ml ssDNA added to BC12a DBLβ
[1] = target: ICAM-1 domains 1-5 Fc fusion protein (reference, wild type) (UniProt P05362)
[2] = target: ICAM-1 S22A mutant Fc fusion protein (UniProt P05362)
[3] = target: ICAM-1 Kilifi (K29M) Fc fusion protein (UniProt P05362)
[4] = target: ICAM-1 L44A mutant Fc fusion protein (UniProt P05362)
[5] = target: ICAM-1 L42A mutant Fc fusion protein (UniProt P05362)

Substance | Kd [1] | koff [1] | kon [1] | % ICAM-1^D1D5 binding [2] | Kd [2] | % ICAM-1^D1D5 binding [3] | % ICAM-1^D1D5 binding [4] | % ICAM-1^D1D5 binding [5]
IT4var13 DBLβ domain (from UniProt A3R6S0 1-3274) (domain or fragment) | 3.45 nM | 0.000125 s⁻¹ | 36100 M⁻¹ s⁻¹ | 94.5% | 9.82 nM | 8.9% | 10% | 3.1%
BC12a DBLβ domain (PfEMP1 of the dominantly expressed var gene of isolate BC12) (domain or fragment) | 197 nM | 0.000944 s⁻¹ | 4800 M⁻¹ s⁻¹ | – | – | – | – | –
J1a DBLβ domain (PfEMP1 of the dominantly expressed var gene of isolate J1) (domain or fragment) | 51.7 nM | 0.00153 s⁻¹ | 29600 M⁻¹ s⁻¹ | 10.9% | – | 5.4% | 2.7% | 1.4%
